From publication PMC9114487, “Generation of a High-Affinity Nanobody Against CD147 for Tumor Targeting and Therapeutic Efficacy Through Conjugating Doxorubicin” (Frontiers in Immunology, 2022)

B1: V-4 (VHH)
VHH: QVQLQESGGGSVQAGGSLRLSCSVSGGTFSSCSMDWFRQAPGKVRELVSSISSGGNTYYEDSVKGRFTISQDNAKTTVYLQMNSLKPEDTAMYYCKMFCPWNKSYWGQGTQVTVSS
B2: V-17 (VHH)
VHH: QVQLQESGGGSVQAGGSLRLSCAVSGYTYSSCSMDWYRQAPGKERELVSSISSGGNTYYEDSVKGRFTISQDNAKNTVYLRMNSLKPEDTAIYYCKMWCPWNKSYWGQGTQVTVSS
B3: V-10 (VHH)
VHH: QVQLQESGGGSVQAGGSLRLSCSVSGSTFSSCSMDWFRQAPGKERGLVSSISSGGNTYYEDSVKGRFTISQDNAKNTVYLQMNSLKPEDTAMYYCKMWCPGNKSYWGQGTQVTVSS
B4: V-24 (VHH)
VHH: QVQLQESGGGLVLPGGSLRLSCAAFGFIFSDFDMSWVRQAPGKGLEWVSSISRYGRTSSADSVKGRFTISRDNAKNTLYLQMHSLKTDDTAVYYCATGNFCSGGRCYIDRGQGTQVTVSS
B5: V-25 (VHH)
VHH: QVQLQESGGGLVQPGGSLRLSCAAFGFIFSNFDMSWVRQAPGKGLEWVSSISRYGRTSSADSVKGRFTISRDNAKNTLYLEMNSLKSADTAVYYCATGNFCSGGRCYINRGQGTQVTVSS
B6: V-27 (VHH)
VHH: QVQLQESGGGLVQPGGSLRLSCAAFGFIFSNYDMSWVRQAPGKGLEWVSSISRYGRTSSADSVKGRFTISRDNAKNTLYLQMNSLKTDDTAVYYCATGNFCSGGRCYIDRGQGTQVTVSS
B7: V-26 (VHH)
VHH: QVQLQESGGGSVQAGGSLRLSCAAFGFIFSNYDMSWVRQAPGKGFEWVSSISRYGRTSNADAVKGRFTISRDNAKNTLYLQMNSLKTDDTAVYYCATGNFCSGGRCYINRGQGTQVTVSS
B8: V-29 (VHH)
VHH: QVQLQESGGGLVQPGGSLRLSCAAFGFIFSNYDMSWVRQAPGKGFEWVSSISRYGRTSNADAVKGRFTISRDNAKNTLYLQMNSLKTDDTAVYYCATGNFCSGGRCYINRGQGTQVTVSS
B9: V-28 (VHH)
VHH: QVQLQESGGGSVQAGGSLRLSCAAFGFIFSNYDMSWVRQAPGKGLEWVSSISRYGRTSSADSVKGRFTISRDNAKNTLYLQMNSLKTDDTAVYYCTTGNFCSGGRCYSNRGQGTQVTVSS
B10: V-1 (VHH)
VHH: QVQLQESGGGSVQAGGSLRLSCRASGYTFSRHCMGWFRQGPGKEREVVATIYTFNGRTYYADSVKGRFTVSQDNAQNSLYLQMDSLKPEDTAMYYCAAARIGWTSVSGSCPRMGDVNKYWGQGTQVTVSS
B11: V-2 (VHH)
VHH: QVQLQESGGGSVQAGGSLRLSCRASGYTFSRHCMGWFRQGPGKEREVVATIYTFNGHTYYADSVKGRFTISQDNPQNSLTLQMDSLKPEDTAMYYCAAARIGWTSVSGSCPRMGDVNKYWGQGTQVTVSS
B12: V-14 (VHH)
VHH: QVQLQESGGGSVQAGGSLRLSCRASGYTFSRHCMGWFRQGPGKEREVVATIYTFNGRTYYADSVKGRFTISQDNAQNSLYLQMDSLKPEDTAMYYCAAARIGWTSVSGSCPRMGDVNKYWGQGTQVTVSS
B13: V-11 (VHH)
VHH: QVQLQESGGGSVQAGGSLRLSCRASGYTFSRHCMGWFRQGPGKERELVASIYTFNGRTYYADSVKGRFTISQDNAQNSLYLQMDSLKPEDTAMYYCAAARIGWTSVSGSCPRMGDENKYWGQGTQVTVSS
B14: V-13 (VHH)
VHH: QVQLQESGGGSVQAGGSLRLSCRASGYTFSEHCMGWFRQGPGKEREVVATIYTFNGRTYYADSVKGRFTISQDNAQNSLYLQMDSLKPEDTAMYYCAAARIGWTSVSGSCPRMGDVNKYWGQGTQVTVSS
B15: V-23 (VHH)
VHH: QVQLQESGGGSVQAGGSLRLSCRASGYTFSEHCMGWFRQGPGKERELVASIYTFNGRTYYADSVKGRFTISQDNAQNSLYLQMDSLKPEDTAMYYCAAARIGWTSVSGSCPRMGDVNKYWGQGTQVTVSS
B16: V-22 (VHH)
VHH: QVQLQESGGGSVQAGGSLRLSCRASGYTFSRHCMGWFRQTPGKEREVVATIYTFNGHTYYADSVKGRFTISQDNAQNSLYLQMDSLKPEDTAMYYCAAARIGWTSVSGSCPRMGDVNKYWGQGTQVTVSS
B17: V-3 (VHH)
VHH: QVQLQESGGGSVQAGGTLRLSCRVSGYTFSRHCMGWFRQGPGKEREVVATIYTFNGRTSYADSVKGRFTISQDNAQNSLYLQMDSLKPEDTATYYCAAARIGWTSVSGSCPRMGDENKYWGQGTQVTVSS
B18: V-19 (VHH)
VHH: QVQLQESGGGSVQAGGSLRLSCRAPGYTFSRHCMGWFRQGPGEEREVVATIYTFNGRTTYADSVKGRFTISQDNAQNSLYLQMDSLKPEDTAMYYCAAARIGWTSASGSCPRMGDENKYWGQGTQVTVSS
B19: V-5 (VHH)
VHH: QVQLQESGGGSVQAGETLTLSCTASGYTFSSSNCMGWFRQAPGQEREDVAIISVRGGITYYADSVKGRFTISRDNAKNTLSLQMNSLKPEDTAVYYCAADNPKYRDLYNAHCNWSYRYWGQGTQVTVSS
B20: V-15 (VHH)
VHH: QVQLQESGGGSAQAGGSLRLSCAASGYTFSSSNCMGWFRQAPGKEREGVAIISVRGGITYYADSVKGRFTISRDNAKNTLSLQMNSLKPEDTAVYYCAADNPKYRDLYDAHCNWSYRYWGQGTQVTVSS
B21: V-21 (VHH)
VHH: QVQLQESGGGSVQAGGSLRLSCAASGYTFSSSNCMGWFRQAPGKEREDVAIISVRGGITYYADSVKGRFTISRDSAKNTLSLQMNSLKSEDTAVYYCAADNPKYRQLSNAHCNWSYRYWGQGTQVTVSS
B22: V-20 (VHH)
VHH: QVQLQESGGGSVQAGGSLRLSCAASGYTFSSSNCMGWFRQAPGQEREDVAIISVRGGITYYVDSVKGRFTISRDNAKNTLSLQMNNLKPEDTAVYYCAADNPKYRDLHGGHCNWSYRYWGQGTQVTVSS
B23: V-9 (VHH)
VHH: QVQLQESGGGSVQAGGSLRLSCAASGYTFSSSNCMGWFRQAPGQEREDVAIISVRGGITYYVDSVKGRFTISRDNAKNTLSLQMNNLKPEDTAVYYCAADNPKYRDLYDAHCNWSYRYWGQGTQVTVSS
B24: V-18 (VHH)
VHH: QVQLQESGGGSVQAGGSLRLSCAASGYTFSSSNCMGWFRQAPGKEREDVAIISVRGGITYYTDSVKGRFTISRDNAKNTLSLQMNNLKPDDTAVYYCAADNPKYRDLYGAHCNWSYRYWGQGTQVTVSS
B25: V-7 (VHH)
VHH: QVQLQESGGGSVQAGGSLRLSCAASGYTFSSSNCMGWFRQAPGKEREDVAIISVRGGITYYADSVKGRFTISRDSAKNTLSLQMNSLKPEDTAVYYCAADNPKYRALSDAHCNWSYRYWGQGTQVTVSS
B26: EGFP-VHH fusion protein EGFP-11-1 (VHH)
VHH: QVQLQESGGGSVQAGGSLRLSCAVSGYTYSSCSMDWYRQAPGKERELVSSISSGGNTYYEDSVKGRFTISQDNAKNTVYLQMNSLKPEDTASYYCKMWCPGNKSYWGQGTQVTVSS
notes: as the VHH of m1; About 40 kDa by SDS-PAGE; also called 11-1-EGFP; EGFP-11-1 Nbs; source: E. coli BL21(DE3), pET-25b, purified (His-Trap HP column); not shown: EGFP, C-terminal, kept
B27: anti-CD147 nanobody 11-1 (VHH)
VHH: QVQLQESGGGSVQAGGSLRLSCAVSGYTYSSCSMDWYRQAPGKERELVSSISSGGNTYYEDSVKGRFTISQDNAKNTVYLQMNSLKPEDTASYYCKMWCPGNKSYWGQGTQVTVSS
notes: Selected by phage display from an immune VHH library; The immunised animal is called an alpaca in the methods, a camel in the results and a Bactrian camel in the discussion; About 13 kDa by SDS-PAGE; Surmise: pET-15b usually adds an N-terminal His tag; also called Nb 11-1; anti-CD147-VHH Nb (11-1); source: E. coli BL21(DE3), pET-15b, purified (His-Trap HP column)

These binders were tested against T1, ecto-domain protein of CD147 (Homo sapiens (assumed), isoform 2, UniProt P35613-2, biotin (Sulfo-NHS-LC-Biotin) in the BLI only) (assay: not given). Conditions: not given.
Target sequence in this assay (P35613 other isoform, or with tags, fused parts or gaps): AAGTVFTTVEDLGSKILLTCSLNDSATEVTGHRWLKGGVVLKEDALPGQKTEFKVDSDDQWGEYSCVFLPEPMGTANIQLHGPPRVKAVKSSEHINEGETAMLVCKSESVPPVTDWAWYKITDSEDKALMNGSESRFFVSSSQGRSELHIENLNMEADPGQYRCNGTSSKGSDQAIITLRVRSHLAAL
B1: binds.
B2: binds.
B3: binds.
B4: binds.
B5: binds.
B6: binds.
B7: binds.
B8: binds.
B9: binds.
B10: binds.
B11: binds.
B12: binds.
B13: binds.
B14: binds.
B15: binds.
B16: binds.
B17: binds.
B18: binds.
B19: binds.
B20: binds.
B21: binds.
B22: binds.
B23: binds.
B24: binds.
B25: binds.

Each binder was assayed against T1, ecto-domain protein of CD147 (assay: BLI; kinetics between CD147 and EGFP-11-1 (Figure 3F); who was immobilised is not told for this pair). Conditions: both partners purified.
Target sequence in this assay (P35613 whole entry, looked up, tested part not stated, canonical isoform): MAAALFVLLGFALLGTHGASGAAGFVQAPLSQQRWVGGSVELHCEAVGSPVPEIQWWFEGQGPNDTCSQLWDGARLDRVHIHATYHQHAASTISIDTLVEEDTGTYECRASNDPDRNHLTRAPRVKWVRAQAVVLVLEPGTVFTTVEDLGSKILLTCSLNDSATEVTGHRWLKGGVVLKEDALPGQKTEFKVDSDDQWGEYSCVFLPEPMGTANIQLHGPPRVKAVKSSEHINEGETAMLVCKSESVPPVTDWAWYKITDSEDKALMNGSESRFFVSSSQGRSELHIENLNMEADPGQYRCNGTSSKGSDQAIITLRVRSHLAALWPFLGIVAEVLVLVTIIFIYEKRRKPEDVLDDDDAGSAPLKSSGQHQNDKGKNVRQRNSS
Work on B26 yielded a Kd of 11.1 nM.

What follows are binders tested against C78 (C-terminal ecto-domain protein of CD147) (assay: BLI; ForteBio Octet; biotin-labeled CD147 or C78 immobilized on the sensors (200 s); Nb 11-1 at different concentrations in PBST, 200 s; PBST 100 s; room temperature, shaking 1,000 rpm). Conditions: not given.
B27 gave a Kd of 1.78 nM, a koff of 0.000104 s⁻¹ and a kon of 58200 M⁻¹ s⁻¹.

The binders below were run against T1, ecto-domain protein of CD147 in the same assay as above. Conditions: both partners purified.
Target sequence in this assay (P35613 whole entry, looked up, tested part not stated, canonical isoform): as above
In the case of B27, the Kd is reported as 0.636 nM, the koff is reported as 2.2e-05 s⁻¹ and the kon is reported as 34600 M⁻¹ s⁻¹.
